Test results from US20190322724.

Tested on: blocking anti-c-Src monoclonal antibodies

Substance	TIMP-2 tyrosine phosphorylation in HT1080 CM (pulldown, anti-phos-Tyr immunoblot)	TIMP-2 tyrosine phosphorylation in SYF+c-Src CM (pulldown, anti-phos-Tyr immunoblot)
secreted c-Src (e-Src) in conditioned media of HT1080 human fibrosarcoma cells	TIMP-2 tyrosine phosphorylation was abolished	
secreted c-Src (e-Src) in conditioned media of SYF+c-Src cells		TIMP-2 tyrosine phosphorylation was abolished
